Laboratory results from US20170044269A1 (WASHINGTON UNIVERSITY, published 2017).

Tests used:
[1] = molecular target: T1, purified human carcinoembryonic antigen (hCEA) protein (human, UniProt P06731 35-685, limits assumed); experiment: ELISA, hCEA coated on plate, virions detected with anti-adenovirus goat Ab
T1 construct: Bought protein coated on ELISA plates or used in solution to pre-incubate the virus; also called human CEA protein; recombinant hCEA protein (ab742)
T1 sequence (looked up): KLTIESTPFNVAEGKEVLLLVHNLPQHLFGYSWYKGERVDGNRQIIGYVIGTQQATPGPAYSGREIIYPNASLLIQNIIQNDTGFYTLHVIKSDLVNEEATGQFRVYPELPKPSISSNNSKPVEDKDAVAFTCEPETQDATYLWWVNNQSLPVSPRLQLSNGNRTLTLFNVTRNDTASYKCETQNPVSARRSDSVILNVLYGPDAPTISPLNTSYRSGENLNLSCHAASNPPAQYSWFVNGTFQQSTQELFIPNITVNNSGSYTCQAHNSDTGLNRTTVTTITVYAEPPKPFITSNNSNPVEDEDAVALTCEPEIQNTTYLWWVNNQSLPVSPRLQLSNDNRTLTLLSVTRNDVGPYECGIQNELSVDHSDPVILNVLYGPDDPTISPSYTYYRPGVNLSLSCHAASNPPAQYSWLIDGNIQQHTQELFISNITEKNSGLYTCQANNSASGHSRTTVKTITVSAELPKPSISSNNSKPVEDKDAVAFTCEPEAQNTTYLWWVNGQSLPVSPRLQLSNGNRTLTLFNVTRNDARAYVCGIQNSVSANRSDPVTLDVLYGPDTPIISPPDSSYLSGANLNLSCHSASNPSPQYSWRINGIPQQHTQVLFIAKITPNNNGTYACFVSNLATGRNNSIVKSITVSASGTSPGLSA

[2] = molecular target: T1, purified human carcinoembryonic antigen …; experiment: dilution ELISA, hCEA coated on plate, VHH detected with HRP/anti-E-tag mAb
Procedure: Nunc Maxisorb plates (Nunc) were coated overnight at 4° C. with 1 μg/ml human CEA protein (Abeam, Cambridge, Mass.). The plates were blocked in binding buffer containing 5% w/v non-fat milk in Tris-buffered saline (TBS). […] Plates were incubated at 25° C. for one hour and then washed three times with TBS. Bound VHHs were detected with HRP/anti-E-tag mAb (Bethyl Laboratories, Montgomery, Tex.).
The plates for enzyme-linked immunosorbent assay were coated with purified hCEA protein and then purified VHH were added in wells at various concentrations. (FIG. 2A) Bound VHHs were detected with HRP/anti-E-tag mAb. […] The EC₅₀ values are the VHH concentration that produced 50% maximum signal on the ELISAs.

[3] = molecular target: T2, human carcinoembryonic antigen (hCEA) expressed on cells (human, UniProt P06731 35-685); experiment: cell-based or functional assay
T2 sequence (looked up): T1 sequence (looked up)

[4] = molecular target: T2, human carcinoembryonic antigen (hCEA) …; experiment: cell binding for one hour at 1x10^3 vp per cell, Ad hexon gene copy number per 20 ng total DNA by qPCR
[5] = molecular target: T2, human carcinoembryonic antigen (hCEA) …; experiment: cell binding for one hour, Ad hexon gene copy number by qPCR, MC38CEA against MC38 cells
[6] = molecular target: T2, human carcinoembryonic antigen (hCEA) …; experiment: cell binding for one hour at 5x10^3 v.p. per cell, hexon qPCR; hCEA up-regulated by irradiation

B1: AdVHH122Luc (Ad5 vector displaying anti-EGFR fiber-fibritin-VHH chimera, clone VHH122) (other)
chain: MKRARPSEDTFNPVYPYDTETGPPTVPFLTPPFVSPNGFQESPPGVLSLRLSEPLVTSNGMLALKMGNGLSLDEAGNLTSQNVYSRLNEIDTKQTTVESDISAIKTSIGYPGNNSIITSVNTNTDNIASINLELNQSGGIKQRLTVIETSIGSDDIPSSIKGQIKDNTTSIESLNGIVGENTSSGLRANVSWLNQIVGTDSSGGQPSPPGSLLNRVSTIETSVSGLNNAVQNLQVEIGNNSAGIKGQVVALNTLVNGTNPNGSTVEERGLTNSIKANETNIASVTQEVNTAKGNISSLQGDVQALQEAGYIPEAPRDGQAYVRKDGEWVFLSTFLSPAGGGGSEVQLQESGGGLVQAGDSLRLSCLVSGRSFNSYTMGWFRQAPGKEREFVAAILWSGPTTYYADSVKGRFTISRDNAKNTVYLQMNSLKPEDTAVYYCAAALGVLVLAPGNVYSYWGQGTQVTVSS
notes: domain: N-terminal Ad5 fiber tail region;domain: entire fibritin protein with the trimerizing foldon domain; Isogenic control vector; chimeric fiber on whole purified Ad5 virus particles; also called FF-VHH122
binding result [1]: no binding

B2: JJB-B2 (VHH)
VHH: QVQLVETGGGLVQPGGSLRLSCAASESIFSTYAMGWYRQAPGKQRELVAAITTNDIANYADSVKGRFTISRDNAKNTVYLQMNSLNPEDTAVYYCNAIFPPYNYWGQGTQVTVSS
notes: Alpaca anti-hCEA VHH, expressed and purified as a thioredoxin fusion protein; also called clone B2; B2 sdAb; not shown: Thioredoxin fusion partner, E-tag and any linkers
EC50 [2]: ~0.2 nM

B3: AdC17Luc (Ad5 vector displaying anti-hCEA fiber-fibritin-VHH chimera, clone C17) (other)
chain: MKRARPSEDTFNPVYPYDTETGPPTVPFLTPPFVSPNGFQESPPGVLSLRLSEPLVTSNGMLALKMGNGLSLDEAGNLTSQNVYSRLNEIDTKQTTVESDISAIKTSIGYPGNNSIITSVNTNTDNIASINLELNQSGGIKQRLTVIETSIGSDDIPSSIKGQIKDNTTSIESLNGIVGENTSSGLRANVSWLNQIVGTDSSGGQPSPPGSLLNRVSTIETSVSGLNNAVQNLQVEIGNNSAGIKGQVVALNTLVNGTNPNGSTVEERGLTNSIKANETNIASVTQEVNTAKGNISSLQGDVQALQEAGYIPEAPRDGQAYVRKDGEWVFLSTFLSPAGGGGSEVQLVESGGGFVQAGESLTLSCTSSTLSCTSSTLTFTPYRMAWYRQAPGKQRDLVADISSGDGRTTNYADFAKGRFTISRDNIKNTVFLRMTNLKPEDTAVYYCNTFVSFVGIARSWGQGTQVTVSSEP
Luc expression in hCEA+ cells (MC38CEA against MC38) [3]: ~4 fold

B4: JJB-B5 (VHH)
VHH: QVQLVETGGGLVQPGGSLRPSCTASGSIFSIYAMGWYRQASGKQRELVALITRDEVFNYADSVKGRFTISRDNAKDTVYLQMNSLKPEDTAVYYCWVETVNDHYNSGVEDYWGQGTQVTVSS
notes: Alpaca anti-hCEA VHH, expressed and purified as a thioredoxin fusion protein; not shown: Thioredoxin fusion partner, E-tag and any linkers
EC50 [2]: ~50 nM

B5: Ad.CXCR4E1.B2 (conditionally replicative Ad5 with fiber-fibritin chimera expressing anti-hCEA sdAb clone B2) (other)
chain: MKRARPSEDTFNPVYPYDTETGPPTVPFLTPPFVSPNGFQESPPGVLSLRLSEPLVTSNGMLALKMGNGLSLDEAGNLTSQNVYSRLNEIDTKQTTVESDISAIKTSIGYPGNNSIITSVNTNTDNIASINLELNQSGGIKQRLTVIETSIGSDDIPSSIKGQIKDNTTSIESLNGIVGENTSSGLRANVSWLNQIVGTDSSGGQPSPPGSLLNRVSTIETSVSGLNNAVQNLQVEIGNNSAGIKGQVVALNTLVNGTNPNGSTVEERGLTNSIKANETNIASVTQEVNTAKGNISSLQGDVQALQEAGYIPEAPRDGQAYVRKDGEWVFLSTFLSPAGGGSQVQLVETGGGLVQPGGSLRLSCAASESIFSTYAMGWYRQAPGKQRELVAAITTNDIANYADSVKGRFTISRDNAKNTVYLQMNSLNPEDTAVYYCNAIFPPYNYWGQGTQVTVSSEPKTPKPQ
notes: domain: N-terminal Ad5 fiber tail region;domain: trimerizing domain of the fibritin protein; Chimeric fiber on whole purified virus particles; also called FFB2; fiber-fibritin-B2
fold binding to hCEA(+) MC38CEA cells against hCEA(-) MC38 cells [4]: ~25 fold

B6: JJB-D1 (VHH)
VHH: QVQLVESGGLVQAGGSLRPSCAASGSIFLQNAMGWYRQVPGKQRELVAAITSVDSTNYADSVKGRFTISRDNAKNTVYLQMNSLKPEDTAVYYCNAPWNSDYHWGKGTLVTVSS
notes: as for B4
EC50 [2]: ~1 nM

B7: JJB-A3 (VHH)
VHH: QVQLVETGGGLVQPGGSLRLSCAASGRISDINAMGWYRQAPGKQRELVAAITSVGSNYVDSVKGRFTISKDNAKNTVYLQMYSLNPEDTAVYYCNTQCGTWLVCDGRDQWGKGTLVTVSS
notes: Alpaca anti-hCEA VHH, expressed and purified as a thioredoxin fusion protein; the methods name only JJB-A3; not shown: Thioredoxin fusion partner, E-tag and any linkers
EC50 [2]: ~0.15 nM

B8: Ad5Luc (Ad5 vector with wild-type Ad5 fiber) (other)
chain: MKRARPSEDTFNPVYPYDTETGPPTVPFLTPPFVSPNGFQESPPGVLSLRLSEPLVTSNGMLALKMGNGLSLDEAGNLTSQNVTTVSPPLKKTKSNINLEISAPLTVTSEALTVAAAAPLMVAGNTLTMQSQAPLTVHDSKLSIATQGPLTVSEGKLALQTSGPLTTTDSSTLTITASPPLTTATGSLGIDLKEPIYTQNGKLGLKYGAPLHVTDDLNTLTVATGPGVTINNTSLQTKVTGALGFDSQGNMQLNVAGGLRIDSQNRRLILDVSYPFDAQNQLNLRLGQGPLFINSAHNLDINYNKGLYLFTASNNSKKLEVNLSTAKGLMFDATAIAINAGDGLEFGSPNAPNTNPLKTKIGHGLEFDSNKAMVPKLGTGLSFDSTGAITVGNKNNDKLTLWTTPAPSPNCRLNAEKDAKLTLVLTKCGSQILATVSVLAVKGSLAPISGTVQSAHLIIRFDENGVLLNNSFLDPEYWNFRNGDLTEGTAYTNAVGFMPNLSAYPKSHGKTAKSNIVSQVYLNGDKTKPVTLTITLNGTQETGDTTPSAYSMSFSWDWSGHNYINEIFATSSYTFSYIAQE
notes: Wild-type fiber on whole purified Ad5 virus particles; control vector; also called wild-type Ad5Luc; fiber unmodified control Ad5Luc vector
binding result [1]: no binding

B9: Ad.CXCR4E1 (conditionally replicative Ad5 with wild-type Ad5 fiber) (other)
chain: B8 chain
notes: Wild-type fiber on whole purified virus particles; control vector; also called control CRAd
binding result [5]: no binding (tested: 1x10^3 vp per cell)

B10: AdB2Luc (Ad5 vector displaying anti-hCEA fiber-fibritin-VHH chimera, clone B2) (other)
chain: MKRARPSEDTFNPVYPYDTETGPPTVPFLTPPFVSPNGFQESPPGVLSLRLSEPLVTSNGMLALKMGNGLSLDEAGNLTSQNVYSRLNEIDTKQTTVESDISAIKTSIGYPGNNSIITSVNTNTDNIASINLELNQSGGIKQRLTVIETSIGSDDIPSSIKGQIKDNTTSIESLNGIVGENTSSGLRANVSWLNQIVGTDSSGGQPSPPGSLLNRVSTIETSVSGLNNAVQNLQVEIGNNSAGIKGQVVALNTLVNGTNPNGSTVEERGLTNSIKANETNIASVTQEVNTAKGNISSLQGDVQALQEAGYIPEAPRDGQAYVRKDGEWVFLSTFLSPAGGGGSQVQLVETGGGLVQPGGSLRLSCAASESIFSTYAMGWYRQAPGKQRELVAAITTNDIANYADSVKGRFTISRDNAKNTVYLQMNSLNPEDTAVYYCNAIFPPYNYWGQGTQVTVSSEPKTPKPQ
notes: domain: N-terminal Ad5 fiber tail region;domain: entire fibritin protein with the trimerizing foldon domain; The chimeric fiber stood in the assay on whole purified Ad5 virus particles (other capsid proteins present); also called FF-VHH B2; FF-B2
fold increase of Ad hexon gene copy number in irradiated (6 Gy) against mock-treated A549 cells [6]: 5.1 fold | fold increase of Ad hexon gene copy number in irradiated (6 Gy) against mock-treated LS174T cells [6]: 3.2 fold | fold increase of Ad hexon gene copy number in irradiated (6 Gy) against mock-treated PC-3 cells [6]: 2.8 fold | reporter gene (Luc) expression in hCEA-positive MC38CEA cells in comparison with MC38 cells [3]: > 55 fold
